Consider one molecule from article doi:10.1101/2021.02.24.432656 (bioRxiv, 2021).

The target in this test is Flag-importin α1 (human, UniProt P52292 1-529). The test is described as follows: pull-down.

B1: GST-GFP fused ORF6 full-length protein (natural protein)
chain: MFHLVDFQVTIAEILLIIMRTFKVSIWNLDYIINLIIKNLSKSLTENKYSQLDEEQPMEID
Regarding B1, the binding result is “binds”.
